Test results as given in US20260000742.

Biological target: mature TGF-β1, P04202
Sequence (P04202 279-390): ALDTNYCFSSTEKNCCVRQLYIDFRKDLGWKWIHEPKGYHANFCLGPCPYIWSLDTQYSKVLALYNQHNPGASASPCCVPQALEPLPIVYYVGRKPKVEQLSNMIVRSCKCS

B1: Htra3 tagged with FLAG at the C-terminus (Htra3-flag protein) (protein)
chain: REPPAAPCPARCDVSRCPSPRCPGGYVPDLCNCCLVCAASEGEPCGRPLDSPCGDSLECVRGVCRCRWTHTVCGTDGHTYADVCALQAASRRALQVSGTPVRQLQKGACPSGLHQLTSPRYKFNFIADVVEKIAPAVVHIELFLRHPLFGRNVPLSSGSGFIMSEAGLIVTNAHVVSSSSTASGRQQLKVQLQNGDAYEATIQDIDKKSDIATIVIHPKKKLPVLLLGHSADLRPGEFVVAIGSPFALQNTVTTGIVSTAQRDGKELGLRDSDMDYIQTDAIINYGNSGGPLVNLDGEVIGINTLKVAAGISFAIPSDRITRFLSEFQNKHVKDWKKRFIGIRMRTITPSLVEELKAANPDFPAVSSGIYVQEVVPNSPSQRGGIQDGDIIVKVNGRPLADSSELQEAVLNESSLLLEVRRGNDDLLFSIIPEVVM
protein levels of TGF-β1 and phosphorylated Smad2/3 in primary cardiac fibroblasts (western blot): overexpression of Htra3 reduced the protein levels of both TGF-β1 and phosphorylated Smad2/3 (phospho-Smad2/3), a marker of activated TGF-β signaling
